Measurements from the supplement of paper PMC10724198.
± gives the standard deviation of the averaged measurements.
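Note: PSI is a weighted mean of sequencing reads over stability bins, variants kept only with over 10 reads, mCherry proximal and sfGFP distal, peptide attached via GGGS linker.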

These sequences were tested on Saccharomyces cerevisiae (assay: protein stability index of tFT-peptide fusion (C-terminal peptide) (PSI (0-1 scale)); higher = more stable (slower turnover)). Settings: genetic background: wild type; temperature: 30 C.
Protocol: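 Multiplexed protein stability (MPS) profiling in S. cerevisiae. Random 12-aa peptides (tFT-X12 library) are fused to the C-terminus of a sfGFP-mCherry tandem fluorescent timer, after mCherry and a GGGS linker. Cells are FACS-sorted into 8 mCherry/sfGFP bins and deep-sequenced. The protein stability index (PSI) is the read-weighted bin average, scaled from 0 (unstable) to 1 (stable). Only peptides with >10 reads are reported; cells were grown at 30 °C in SC-His with glucose.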
DLIKCPTNMVRL was tested, and the protein stability index was 0.646 ± 0.068. With DLKGCVTFCTSI the protein stability index was 0.638 ± 0.049. For DLLKFGPKVLHL, the protein stability index was 0.6592 ± 0.0023. With DLLLGDCGVGWF the protein stability index was 0.647 ± 0.056. With DLMFSLFPLSFF the protein stability index was 0.704 ± 0.0076. Work on DLRDQDAQTTST yielded a protein stability index of 0.692 ± 0.0088. Work on DLSPPLPPPAHP yielded a protein stability index of 0.674 ± 0.044. With DNQQRQKKKNKK the protein stability index was 0.65 ± 0.013. DNRKIRSEKITP was tested, and the protein stability index was 0.69 ± 0.099. With DPCWLEFRESGG the protein stability index was 0.704 ± 0.12. DPEDPPRAREPQ was tested, and the protein stability index was 0.673 ± 0.038. DPLKSFDAVRQD showed a protein stability index of 0.617 ± 0.06. DPPSPLPRVSPP was tested, and the protein stability index was 0.706 ± 0.068. For DPRPPRPDFRPS, the protein stability index was 0.691 ± 0.072. For DPRPRLNCSYEH, the protein stability index was 0.68 ± 0.014. DPSMSNRDRRLP was tested, and the protein stability index was 0.708 ± 0.036. For DQKFSPYRTPPF, the protein stability index was 0.667 ± 0.058. DQNRSTTVPRGY showed a protein stability index of 0.686 ± 0.075. DQVDGLFTCSAR showed a protein stability index of 0.739 ± 0.027. With DRGCRRRCVGGG the protein stability index was 0.683 ± 0.011. With DRGGCRRAGSCQ the protein stability index was 0.69 ± 0.018. In the case of DRHGLVGGWWAW, the protein stability index is reported as 0.7459 ± 0.0052. DRLCAAPHYGTH was tested, and the protein stability index was 0.599 ± 0.045. For DRLLLSPSPTPP, the protein stability index was 0.739 ± 0.013. For DRLNLFSSFEGT, the protein stability index was 0.721 ± 0.053. DRLVGRVGGHGM showed a protein stability index of 0.755 ± 0.14. Work on DRNGAQAEISFV yielded a protein stability index of 0.6 ± 0.041. For DRPTPPPRSSPL, the protein stability index was 0.739 ± 0.058. DRREKAKNMTKG gave a protein stability index of 0.67 ± 0.025. With DRRTGRAGEMSP the protein stability index was 0.669 ± 0.064. Work on DRSRLWSHPCPG yielded a protein stability index of 0.647 ± 0.0098. In the case of DRSSVLSPFHPL, the protein stability index is reported as 0.76 ± 0.019. Sequence DRTDTNVKWRKK has a protein stability index of 0.696 ± 0.0077. DRVMTLRLTVNP showed a protein stability index of 0.691 ± 0.03. In the case of DRWGGDWMERGG, the protein stability index is reported as 0.749 ± 0.05. DSKDLTPATQVS gave a protein stability index of 0.699 ± 0.013. DSLWACVGSSAL gave a protein stability index of 0.771 ± 0.024. Sequence DSMLACIHPSPI has a protein stability index of 0.708 ± 0.0064. Sequence DSNLAVHRWYIS has a protein stability index of 0.573 ± 0.018. DSPRSLALFRSC gave a protein stability index of 0.642 ± 0.028. Work on DSQGSVHPEAQE yielded a protein stability index of 0.723 ± 0.012. With DSSAFVPATILD the protein stability index was 0.705 ± 0.026. With DSSKFYTPATLL the protein stability index was 0.693 ± 0.048. Work on DSSLCFAGLHNT yielded a protein stability index of 0.705 ± 0.054. For DSSLHRLASLKT, the protein stability index was 0.643 ± 0.075. For DSSLSRPGRLLP, the protein stability index was 0.73 ± 0.012. DSVSLPYVSRPL was tested, and the protein stability index was 0.768 ± 0.041. For DTALMQAGSLFH, the protein stability index was 0.651 ± 0.054. In the case of DTPLIYSLKSEC, the protein stability index is reported as 0.7511 ± 0.0022. Sequence DVLLKVDATKTP has a protein stability index of 0.685 ± 0.032. With DVRVFQMLQGDI the protein stability index was 0.709 ± 0.012. DVTKLVLSIDSC was tested, and the protein stability index was 0.751 ± 0.052. For DWEPGGGGRMVG, the protein stability index was 0.703 ± 0.081. For DWKLPRIEREST, the protein stability index was 0.678 ± 0.024. With DWVDFFQSVIWI the protein stability index was 0.761 ± 0.0079. Sequence DWVYISAGGRYA has a protein stability index of 0.657 ± 0.017. EAEEVGRVVLKG was tested, and the protein stability index was 0.643 ± 0.067. In the case of EAERDEAQRRCA, the protein stability index is reported as 0.686 ± 0.0076. Work on EAFARGAPNQTS yielded a protein stability index of 0.804 ± 0.066. EALELALTWHCV was tested, and the protein stability index was 0.7029 ± 0.0058. For EANEENNSSKRD, the protein stability index was 0.686 ± 0.03. For ECGNYRGPYRTR, the protein stability index was 0.678 ± 0.026. In the case of ECRGGPGLGGGV, the protein stability index is reported as 0.635 ± 0.046. ECSFAGIWVDLG showed a protein stability index of 0.689 ± 0.047. EDDQETPDTVQS gave a protein stability index of 0.66 ± 0.014. With EDHSCVFSAFCF the protein stability index was 0.663 ± 0.045. In the case of EECGVIDIILGG, the protein stability index is reported as 0.679 ± 0.013. EEKEKKEKDGRR showed a protein stability index of 0.728 ± 0.042. Work on EEKREERGDRGR yielded a protein stability index of 0.579 ± 0.01. Work on EEKRKRKSQNEI yielded a protein stability index of 0.702 ± 0.045. In the case of EELGGGTRNYEG, the protein stability index is reported as 0.693 ± 0.018. With EEMMGGAETLHQ the protein stability index was 0.649 ± 0.036. With EESKQKKKNEEE the protein stability index was 0.676 ± 0.041. For EFDCVGCFRTLR, the protein stability index was 0.6618 ± 0.0017. In the case of EFEDCGAWGNIG, the protein stability index is reported as 0.621 ± 0.039. EFPRDLVFDWYG showed a protein stability index of 0.857. EFRCRGPWGLEE was tested, and the protein stability index was 0.761 ± 0.17. With EFRQVDGRASRP the protein stability index was 0.701 ± 0.0049. EGAGRRYRCGWG gave a protein stability index of 0.698 ± 0.049. Sequence EGDIFSGFPSFQ has a protein stability index of 0.741 ± 0.065. For EGEGGKRGEGKR, the protein stability index was 0.624 ± 0.041. Work on EGGETLLGAKGR yielded a protein stability index of 0.639 ± 0.013. Work on EGGRGGVLMRGV yielded a protein stability index of 0.727 ± 0.013. EGGVRSRVRSRL was tested, and the protein stability index was 0.863 ± 0.063. For EGKGKGRGEVKE, the protein stability index was 0.6733 ± 0.0064. Work on EGKKEKKGSKGE yielded a protein stability index of 0.708 ± 0.052. Sequence EGPVYKNIGTDV has a protein stability index of 0.6823 ± 0.0013. For EGRFRNGRAVSG, the protein stability index was 0.673 ± 0.011. For EGRGSVVGSSEG, the protein stability index was 0.633 ± 0.035. Work on EGVGLAETAGDD yielded a protein stability index of 0.684 ± 0.039. In the case of EGVKSGDGGAGG, the protein stability index is reported as 0.63832 ± 0.00019. For EHHLSRLKSLLR, the protein stability index was 0.709 ± 0.058. EHIRPNMSSYAV gave a protein stability index of 0.728 ± 0.072. Sequence EHKSPYGTLRFP has a protein stability index of 0.777 ± 0.11. EIEFRLKLGTGV showed a protein stability index of 0.655 ± 0.04. For EIKKNQKRKFDG, the protein stability index was 0.66 ± 0.041. Work on EIRGGYMGEWRE yielded a protein stability index of 0.691 ± 0.082. EIRIISGIDDRR showed a protein stability index of 0.628 ± 0.077. EITRNKRRCARR was tested, and the protein stability index was 0.674 ± 0.14. EKGRSGVNILRV gave a protein stability index of 0.653 ± 0.011. EKIERDKRKKVK gave a protein stability index of 0.621 ± 0.0076. EKIKNKDYIEKT showed a protein stability index of 0.887 ± 0.094. EKKDKKKRKEKG showed a protein stability index of 0.674 ± 0.028. EKKKKTKYKKKK showed a protein stability index of 0.735 ± 0.052. In the case of EKKKQKHKKKKN, the protein stability index is reported as 0.706 ± 0.031. With EKKNKKRNKKNK the protein stability index was 0.697 ± 0.058. Work on EKKRAGEDGRGK yielded a protein stability index of 0.673 ± 0.0081. For EKKRERRRERKE, the protein stability index was 0.65 ± 0.091. With EKLADTTKRRRV the protein stability index was 0.724 ± 0.026. Sequence EKLKNTYLNRTE has a protein stability index of 0.641 ± 0.023. Sequence EKNDMKKKKNRQ has a protein stability index of 0.713 ± 0.035. Work on EKSNQKSRRNSR yielded a protein stability index of 0.638 ± 0.15. Work on ELDFFIGYGVFC yielded a protein stability index of 0.626 ± 0.0082. ELDRIRPHEQSH was tested, and the protein stability index was 0.723 ± 0.03. ELHPLPLPPPAV showed a protein stability index of 0.743 ± 0.013. ELLASVSVSSRF gave a protein stability index of 0.6276 ± 0.0044. Sequence ELLPFPPPSAPT has a protein stability index of 0.719 ± 0.022. With ELLRTGRVLDRE the protein stability index was 0.71 ± 0.0076. ELRPSTTPLHPS was tested, and the protein stability index was 0.68268 ± 0.00044. For ELVGLAHVLELA, the protein stability index was 0.655 ± 0.084. ELWGGGFLLMLG was tested, and the protein stability index was 0.599 ± 0.021. EMTRELLMRVSK was tested, and the protein stability index was 0.704 ± 0.015. With EMYLKTPVDRKL the protein stability index was 0.678 ± 0.038. For ENMVLQKRGIKV, the protein stability index was 0.5024 ± 0.0049. With ENQKKSKTNRKK the protein stability index was 0.658 ± 0.036. EPAAGFAICRHH was tested, and the protein stability index was 0.67 ± 0.02. EPIKEKKKMGSR was tested, and the protein stability index was 0.63 ± 0.056. EPRVGCVGFGIT gave a protein stability index of 0.638 ± 0.013. Work on EPSAPYYCVTKG yielded a protein stability index of 0.7279 ± 0.002. EQENATDRRGRE showed a protein stability index of 0.644 ± 0.026. With EQFLRCEALGAW the protein stability index was 0.661 ± 0.02. EQNRINLNRSGL gave a protein stability index of 0.762 ± 0.23. Sequence EQRSKSHVLPPR has a protein stability index of 0.737 ± 0.009. With ERAKMYPKKKIR the protein stability index was 0.64 ± 0.067. With EREALKSCIIRA the protein stability index was 0.641 ± 0.014. EREGREGKGRER showed a protein stability index of 0.777 ± 0.079. In the case of ERKKDGRKVRKK, the protein stability index is reported as 0.658 ± 0.012. ERKNTTSEFTNL gave a protein stability index of 0.684 ± 0.0079. In the case of ERRERGGERNTP, the protein stability index is reported as 0.658 ± 0.01. ERSHGEKGVFYL gave a protein stability index of 0.73 ± 0.031. With ESDLRFPGVPCI the protein stability index was 0.696 ± 0.011. ESHSIIRRRSWW was tested, and the protein stability index was 0.7797 ± 0.0037. Sequence ESIEVGTGDWVG has a protein stability index of 0.653 ± 0.013. ESKKYQQDNITR was tested, and the protein stability index was 0.608 ± 0.039. ESKRKLHSSRYS showed a protein stability index of 0.6875 ± 0.0032. With ESPPVCFLFSSC the protein stability index was 0.711 ± 0.021. ESRGKKPDTYTQ was tested, and the protein stability index was 0.707 ± 0.074. For ESRNEPDQRLCQ, the protein stability index was 0.686 ± 0.013. Work on ESRPRVGLERER yielded a protein stability index of 0.676 ± 0.053. ESSVLGFWIMSL gave a protein stability index of 0.629 ± 0.041. In the case of ETARENENTIGE, the protein stability index is reported as 0.6575 ± 0.0065. ETCTRHHPRHNS gave a protein stability index of 0.687 ± 0.043. In the case of ETEASKGSRNEE, the protein stability index is reported as 0.627 ± 0.065. ETGGQTELKVVH gave a protein stability index of 0.683 ± 0.084. Work on ETHHITHHQWKV yielded a protein stability index of 0.683 ± 0.05.
